According to paper PMC8307404, “Crystal Structure-Guided Design of Bisubstrate Inhibitors and Photoluminescent Probes for Protein Kinases of the PIM Family” (Molecules, 2021):
Square brackets hold non-standard residues; d marks the D form. Peptide text beside a SMILES is read from it. * marks the point of attachment. X3 = O=C(CCCCCNCc1nc2c(sc3cc(Br)cnc32)c(=O)[nH]1)*

What was measured:
Assay in all cases: Kinase profiling (radiometric filter-binding)
Assay type in all cases: biochemical
CHK1 = target: T1, CHK1 (Homo sapiens, UniProt O14757); conditions: CHK1, 1 µM inhibitor; read-out: Residual activity, %
T1 sequence (O14757 1-476): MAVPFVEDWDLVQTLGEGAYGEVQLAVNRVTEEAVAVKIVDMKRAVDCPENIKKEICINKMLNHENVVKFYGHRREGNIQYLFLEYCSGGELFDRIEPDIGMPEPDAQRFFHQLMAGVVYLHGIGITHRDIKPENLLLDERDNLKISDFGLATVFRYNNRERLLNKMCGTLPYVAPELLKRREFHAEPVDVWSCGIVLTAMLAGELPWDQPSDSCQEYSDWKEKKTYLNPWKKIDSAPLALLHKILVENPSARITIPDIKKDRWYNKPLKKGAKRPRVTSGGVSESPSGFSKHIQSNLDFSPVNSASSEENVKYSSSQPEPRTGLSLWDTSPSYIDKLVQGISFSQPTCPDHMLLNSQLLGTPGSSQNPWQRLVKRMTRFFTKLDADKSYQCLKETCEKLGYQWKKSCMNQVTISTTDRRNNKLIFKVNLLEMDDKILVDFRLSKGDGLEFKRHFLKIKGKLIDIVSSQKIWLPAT
Summary of the method: (§1)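 Human kinase, ATP (≤ KM) and test compound (1 µM final) were combined; phosphorylation was quantified by radiometric filter binding. Activity left was normalised to the control reaction without compound.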

JNK1 = JNK1 (Homo sapiens, UniProt P45983); conditions: JNK1, 1 µM inhibitor; read-out: Residual activity, %
JNK1, sequence (P45983 whole entry): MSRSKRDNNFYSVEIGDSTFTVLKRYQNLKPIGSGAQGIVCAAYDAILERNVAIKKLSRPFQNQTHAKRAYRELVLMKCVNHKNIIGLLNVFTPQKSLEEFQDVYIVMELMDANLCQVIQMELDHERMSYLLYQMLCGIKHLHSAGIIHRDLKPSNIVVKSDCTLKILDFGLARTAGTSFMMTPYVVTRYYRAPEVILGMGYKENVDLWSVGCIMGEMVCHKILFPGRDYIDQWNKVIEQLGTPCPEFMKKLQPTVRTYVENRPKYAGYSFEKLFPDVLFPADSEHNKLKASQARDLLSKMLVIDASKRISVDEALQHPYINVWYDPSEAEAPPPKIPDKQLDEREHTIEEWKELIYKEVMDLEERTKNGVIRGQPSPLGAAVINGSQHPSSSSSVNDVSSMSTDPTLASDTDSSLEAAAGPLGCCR
Summary of the method: as §1

JNK2 = JNK2 (Homo sapiens, UniProt P45984); conditions: JNK2, 1 µM inhibitor; read-out: Residual activity, %
JNK2, sequence (P45984 whole entry): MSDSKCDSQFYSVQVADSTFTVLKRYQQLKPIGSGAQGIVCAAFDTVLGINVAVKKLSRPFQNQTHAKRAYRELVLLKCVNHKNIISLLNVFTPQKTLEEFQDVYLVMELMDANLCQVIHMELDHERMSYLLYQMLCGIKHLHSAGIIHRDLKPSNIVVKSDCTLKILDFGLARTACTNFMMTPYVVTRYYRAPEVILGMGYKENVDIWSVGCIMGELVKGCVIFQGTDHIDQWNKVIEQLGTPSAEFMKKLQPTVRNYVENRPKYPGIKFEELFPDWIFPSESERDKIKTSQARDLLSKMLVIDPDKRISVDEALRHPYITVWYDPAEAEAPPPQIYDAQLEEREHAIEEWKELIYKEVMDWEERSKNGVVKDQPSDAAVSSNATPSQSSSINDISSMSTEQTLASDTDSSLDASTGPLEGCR
Summary of the method: as §1

MAPKAP-K3 = MAPKAP-K3 (Homo sapiens, UniProt Q16644); conditions: MAPKAP-K3, 1 µM inhibitor; read-out: Residual activity, %
MAPKAP-K3, sequence (Q16644 whole entry): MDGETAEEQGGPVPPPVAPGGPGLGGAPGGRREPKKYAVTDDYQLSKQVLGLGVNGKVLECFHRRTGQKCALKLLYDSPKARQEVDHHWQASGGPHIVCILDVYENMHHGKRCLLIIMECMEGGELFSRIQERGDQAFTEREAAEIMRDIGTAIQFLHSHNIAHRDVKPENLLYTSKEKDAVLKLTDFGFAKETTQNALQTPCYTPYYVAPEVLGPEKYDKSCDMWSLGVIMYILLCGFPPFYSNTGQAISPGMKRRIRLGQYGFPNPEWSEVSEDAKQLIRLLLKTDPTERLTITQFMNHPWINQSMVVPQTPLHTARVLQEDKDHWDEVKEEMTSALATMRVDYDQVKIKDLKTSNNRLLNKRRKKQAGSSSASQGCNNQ
Summary of the method: as §1

MLK3 = MLK3 (Homo sapiens, UniProt Q16584); conditions: MLK3, 1 µM inhibitor; read-out: Residual activity, %
Summary of the method: as §1

PKC = target: T2, PKC (Homo sapiens, UniProt Q05513); conditions: second of two PKC lines (Greek letter lost), 1 µM inhibitor, read-out: Residual activity, %
T2 sequence (Q05513 1-592): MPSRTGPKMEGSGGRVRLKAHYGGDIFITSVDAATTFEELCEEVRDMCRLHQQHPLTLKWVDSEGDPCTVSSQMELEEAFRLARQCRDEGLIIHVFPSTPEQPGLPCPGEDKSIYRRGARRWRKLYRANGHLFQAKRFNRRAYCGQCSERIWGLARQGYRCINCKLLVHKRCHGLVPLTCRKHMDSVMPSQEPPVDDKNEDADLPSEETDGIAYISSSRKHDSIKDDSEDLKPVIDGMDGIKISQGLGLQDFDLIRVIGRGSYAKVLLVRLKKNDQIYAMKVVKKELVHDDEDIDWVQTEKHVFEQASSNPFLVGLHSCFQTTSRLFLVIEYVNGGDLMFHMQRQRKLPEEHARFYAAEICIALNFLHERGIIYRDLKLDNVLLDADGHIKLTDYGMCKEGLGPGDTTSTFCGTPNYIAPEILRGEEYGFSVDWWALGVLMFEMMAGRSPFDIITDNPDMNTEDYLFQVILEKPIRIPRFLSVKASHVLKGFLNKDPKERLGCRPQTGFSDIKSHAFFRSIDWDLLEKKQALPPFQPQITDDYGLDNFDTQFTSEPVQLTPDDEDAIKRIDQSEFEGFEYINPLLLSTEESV
Summary of the method: as §1

PLK1 = PLK1 (Homo sapiens, UniProt P53350); conditions: PLK1, 1 µM inhibitor; read-out: Residual activity, %
PLK1, sequence (P53350 whole entry): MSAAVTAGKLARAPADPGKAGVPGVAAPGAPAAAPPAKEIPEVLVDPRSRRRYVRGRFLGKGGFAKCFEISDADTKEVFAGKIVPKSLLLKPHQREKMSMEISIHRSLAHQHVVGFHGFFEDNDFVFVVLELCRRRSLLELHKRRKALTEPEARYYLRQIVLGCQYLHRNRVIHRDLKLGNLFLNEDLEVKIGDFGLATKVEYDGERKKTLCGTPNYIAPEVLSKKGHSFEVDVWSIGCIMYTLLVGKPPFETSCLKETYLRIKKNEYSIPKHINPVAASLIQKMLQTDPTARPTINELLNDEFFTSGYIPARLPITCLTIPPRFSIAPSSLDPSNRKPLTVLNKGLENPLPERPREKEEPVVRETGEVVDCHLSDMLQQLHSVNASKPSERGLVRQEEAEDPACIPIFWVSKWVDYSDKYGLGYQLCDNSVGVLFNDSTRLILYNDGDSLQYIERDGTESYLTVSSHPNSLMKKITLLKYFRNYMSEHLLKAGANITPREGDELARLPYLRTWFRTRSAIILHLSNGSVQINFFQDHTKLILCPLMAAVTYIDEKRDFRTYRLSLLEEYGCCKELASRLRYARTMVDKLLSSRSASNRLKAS
Summary of the method: as §1

PRAK = target: T3, PRAK (Homo sapiens, UniProt Q8IW41); conditions: 1 µM inhibitor, read-out: Residual activity, %
T3 sequence (Q8IW41 1-473): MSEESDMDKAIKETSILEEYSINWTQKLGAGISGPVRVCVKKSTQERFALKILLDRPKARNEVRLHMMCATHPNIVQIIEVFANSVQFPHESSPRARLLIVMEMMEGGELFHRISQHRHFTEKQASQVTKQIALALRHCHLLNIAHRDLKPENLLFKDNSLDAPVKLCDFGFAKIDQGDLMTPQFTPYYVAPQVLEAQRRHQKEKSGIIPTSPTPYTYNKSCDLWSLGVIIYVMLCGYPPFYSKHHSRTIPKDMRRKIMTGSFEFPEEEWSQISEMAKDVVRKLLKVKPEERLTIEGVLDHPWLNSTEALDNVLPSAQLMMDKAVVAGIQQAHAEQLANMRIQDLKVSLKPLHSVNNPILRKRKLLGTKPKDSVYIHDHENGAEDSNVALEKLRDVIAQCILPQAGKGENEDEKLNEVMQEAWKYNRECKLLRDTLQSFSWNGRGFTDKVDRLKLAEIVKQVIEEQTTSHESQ
Summary of the method: as §1

S6K1 = S6K1 (Homo sapiens, UniProt P23443); conditions: S6K1, 1 µM inhibitor; read-out: Residual activity, %
Summary of the method: as §1

SmMLCK = SmMLCK (Homo sapiens, UniProt Q15746); conditions: 1 µM inhibitor, read-out: Residual activity, %
Summary of the method: as §1

WNK1 = WNK1 (Homo sapiens, UniProt Q9H4A3); conditions: WNK1, 1 µM inhibitor; read-out: Residual activity, %
WNK1, sequence (Q9H4A3 whole entry): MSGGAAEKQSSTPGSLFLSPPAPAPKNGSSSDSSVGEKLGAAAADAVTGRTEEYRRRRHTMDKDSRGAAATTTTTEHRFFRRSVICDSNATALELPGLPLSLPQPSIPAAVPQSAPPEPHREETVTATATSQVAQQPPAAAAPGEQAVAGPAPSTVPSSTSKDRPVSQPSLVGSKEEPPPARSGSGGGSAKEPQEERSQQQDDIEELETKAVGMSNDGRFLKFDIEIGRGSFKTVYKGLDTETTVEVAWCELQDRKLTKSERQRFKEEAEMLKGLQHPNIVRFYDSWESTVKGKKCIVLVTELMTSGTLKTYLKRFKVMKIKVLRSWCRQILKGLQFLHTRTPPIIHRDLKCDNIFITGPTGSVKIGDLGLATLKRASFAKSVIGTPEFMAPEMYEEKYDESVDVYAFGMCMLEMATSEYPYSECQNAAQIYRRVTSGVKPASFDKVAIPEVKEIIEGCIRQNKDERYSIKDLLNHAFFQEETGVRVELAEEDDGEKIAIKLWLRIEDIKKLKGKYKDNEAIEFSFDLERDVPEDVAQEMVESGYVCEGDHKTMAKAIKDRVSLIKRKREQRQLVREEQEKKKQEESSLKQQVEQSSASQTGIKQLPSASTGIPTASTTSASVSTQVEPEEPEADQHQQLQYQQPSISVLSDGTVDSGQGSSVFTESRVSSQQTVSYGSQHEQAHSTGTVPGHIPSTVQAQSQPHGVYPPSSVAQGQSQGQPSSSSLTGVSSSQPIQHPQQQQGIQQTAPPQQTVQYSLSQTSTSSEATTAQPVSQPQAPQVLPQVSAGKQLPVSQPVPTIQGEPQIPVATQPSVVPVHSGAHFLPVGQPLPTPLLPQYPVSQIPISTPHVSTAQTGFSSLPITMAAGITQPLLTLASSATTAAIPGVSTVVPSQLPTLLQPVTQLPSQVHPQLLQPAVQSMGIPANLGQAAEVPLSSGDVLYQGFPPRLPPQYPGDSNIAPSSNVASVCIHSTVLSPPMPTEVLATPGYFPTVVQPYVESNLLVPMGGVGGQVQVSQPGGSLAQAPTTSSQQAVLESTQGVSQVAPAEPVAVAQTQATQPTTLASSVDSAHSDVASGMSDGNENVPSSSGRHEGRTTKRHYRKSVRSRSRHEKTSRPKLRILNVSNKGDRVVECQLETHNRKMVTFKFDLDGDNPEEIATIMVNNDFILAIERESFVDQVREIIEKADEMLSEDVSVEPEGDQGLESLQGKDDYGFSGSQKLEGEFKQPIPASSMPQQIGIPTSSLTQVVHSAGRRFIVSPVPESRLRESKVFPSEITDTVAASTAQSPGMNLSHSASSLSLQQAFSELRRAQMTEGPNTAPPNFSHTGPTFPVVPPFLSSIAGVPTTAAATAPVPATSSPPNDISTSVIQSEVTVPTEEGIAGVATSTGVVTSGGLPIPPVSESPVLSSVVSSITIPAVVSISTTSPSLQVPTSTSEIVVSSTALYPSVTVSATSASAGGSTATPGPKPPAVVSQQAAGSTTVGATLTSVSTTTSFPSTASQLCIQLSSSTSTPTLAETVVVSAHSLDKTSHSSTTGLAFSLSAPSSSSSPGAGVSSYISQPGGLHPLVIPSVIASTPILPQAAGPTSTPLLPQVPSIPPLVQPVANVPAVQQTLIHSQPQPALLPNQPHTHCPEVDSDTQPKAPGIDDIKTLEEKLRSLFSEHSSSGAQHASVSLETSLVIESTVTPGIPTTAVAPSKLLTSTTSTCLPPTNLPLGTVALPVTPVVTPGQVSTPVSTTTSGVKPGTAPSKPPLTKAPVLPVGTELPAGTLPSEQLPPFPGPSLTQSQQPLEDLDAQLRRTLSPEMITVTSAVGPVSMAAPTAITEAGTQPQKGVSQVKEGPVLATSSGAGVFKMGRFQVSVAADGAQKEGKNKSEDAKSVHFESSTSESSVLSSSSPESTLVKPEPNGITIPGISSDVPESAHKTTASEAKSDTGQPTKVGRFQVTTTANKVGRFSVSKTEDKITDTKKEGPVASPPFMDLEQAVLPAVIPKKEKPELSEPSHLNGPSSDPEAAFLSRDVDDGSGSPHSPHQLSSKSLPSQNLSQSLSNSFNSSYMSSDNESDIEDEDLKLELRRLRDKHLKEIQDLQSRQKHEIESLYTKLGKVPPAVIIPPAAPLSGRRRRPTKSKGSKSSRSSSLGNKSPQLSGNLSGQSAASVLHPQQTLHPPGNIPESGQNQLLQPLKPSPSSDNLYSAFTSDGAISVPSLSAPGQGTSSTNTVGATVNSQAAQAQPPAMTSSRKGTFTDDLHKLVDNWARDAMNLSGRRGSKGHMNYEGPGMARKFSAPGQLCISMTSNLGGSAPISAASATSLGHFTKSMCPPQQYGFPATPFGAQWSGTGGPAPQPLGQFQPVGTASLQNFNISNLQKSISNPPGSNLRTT
Summary of the method: as §1

YES1 = YES1 (Homo sapiens, UniProt P07947); conditions: YES1, 1 µM inhibitor; read-out: Residual activity, %
YES1, sequence (P07947 whole entry): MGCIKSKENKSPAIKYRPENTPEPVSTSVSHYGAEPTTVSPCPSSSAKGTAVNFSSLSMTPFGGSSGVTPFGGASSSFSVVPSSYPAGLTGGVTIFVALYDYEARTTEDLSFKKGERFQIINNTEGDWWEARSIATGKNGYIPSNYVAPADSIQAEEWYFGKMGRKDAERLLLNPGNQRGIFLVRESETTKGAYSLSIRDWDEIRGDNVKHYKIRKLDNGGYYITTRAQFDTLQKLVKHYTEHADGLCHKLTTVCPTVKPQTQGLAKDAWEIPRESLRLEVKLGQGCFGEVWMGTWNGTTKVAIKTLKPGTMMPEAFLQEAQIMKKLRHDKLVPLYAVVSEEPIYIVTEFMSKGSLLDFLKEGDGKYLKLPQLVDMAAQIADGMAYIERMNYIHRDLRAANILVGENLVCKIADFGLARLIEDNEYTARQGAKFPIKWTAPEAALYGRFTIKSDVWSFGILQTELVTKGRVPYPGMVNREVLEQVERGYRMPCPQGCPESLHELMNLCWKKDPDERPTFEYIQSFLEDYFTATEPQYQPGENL
Summary of the method: as §1

N=C(N)NCCC[C@@H](NC(=O)CNC(=O)[C@@H](CCCNC(=N)N)NC(=O)[C@@H](CCCNC(=N)N)NC(=O)CCCCCCCNCc1nc2c(sc3cc(Br)cnc32)c(=O)[nH]1)C(=O)N[C@H](CCCCN)C(N)=O [Compound 1, BPTP-Aoc-(D-Arg)2-Gly-D-Arg-D-Lys-NH2]
remaining activity at 1 µM (CHK1): 122 ± 17% | remaining activity at 1 µM (JNK1): 100 ± 13% | remaining activity at 1 µM (JNK2): 107 ± 1% | remaining activity at 1 µM (MAPKAP-K3): 111 ± 6% | remaining activity at 1 µM (MLK3): 105 ± 5% | remaining activity at 1 µM (PKC): 95 ± 6% | remaining activity at 1 µM (PLK1): 99 ± 1% | remaining activity at 1 µM (PRAK): 104 ± 13% | remaining activity at 1 µM (S6K1): 98 ± 2% | remaining activity at 1 µM (SmMLCK): 98 ± 5% | remaining activity at 1 µM (WNK1): 96 ± 4% | remaining activity at 1 µM (YES1): 110%

N=C(N)NCCC[C@@H](NC(=O)CCCCCNCc1nc2c(sc3cc(Br)cnc32)c(=O)[nH]1)C(=O)N[C@H](CCCNC(=N)N)C(=O)N[C@H](CCCNC(=N)N)C(=O)N[C@H](CCCNC(=N)N)C(=O)N[C@H](CCCNC(=N)N)C(=O)N[C@H](CCCNC(=N)N)C(=O)N[C@H](CCCCN)C(N)=O [ARC-3126, BPTP-Ahx-(D-Arg)6-D-Lys-NH2] (X3-[dR][dR][dR][dR][dR][dR][dK]-NH2)
remaining activity at 1 µM (CHK1): 100 ± 6% | remaining activity at 1 µM (JNK1): 116 ± 4% | remaining activity at 1 µM (JNK2): 38 ± 13% | remaining activity at 1 µM (MAPKAP-K3): 43 ± 7% | remaining activity at 1 µM (MLK3): 117 ± 10% | remaining activity at 1 µM (PKC): 92 ± 4% | remaining activity at 1 µM (PLK1): 50 ± 16% | remaining activity at 1 µM (PRAK): 97 ± 7% | remaining activity at 1 µM (S6K1): 75 ± 2% | remaining activity at 1 µM (SmMLCK): 116 ± 39% | remaining activity at 1 µM (WNK1): 107 ± 34% | remaining activity at 1 µM (YES1): 98 ± 12%

N=C(N)NCCC[C@@H](NC(=O)CCCCCNC(=O)Cn1cnc2c(I)c(I)c(I)c(I)c21)C(=O)N[C@H](CCCNC(=N)N)C(=O)N[C@H](CCCNC(=N)N)C(=O)N[C@H](CCCNC(=N)N)C(=O)N[C@H](CCCNC(=N)N)C(=O)N[C@H](CCCNC(=N)N)C(=O)N[C@H](CCCCN)C(N)=O [ARC-3125, TIBI-CH2-C(=O)-Ahx-(D-Arg)6-D-Lys-NH2]
remaining activity at 1 µM (CHK1): 76 ± 1% | remaining activity at 1 µM (JNK1): 82 ± 13% | remaining activity at 1 µM (JNK2): 123 ± 7% | remaining activity at 1 µM (MAPKAP-K3): 48 ± 1% | remaining activity at 1 µM (MLK3): 98 ± 2% | remaining activity at 1 µM (PKC): 14 ± 1% | remaining activity at 1 µM (PLK1): 40 ± 4% | remaining activity at 1 µM (PRAK): 112 ± 3% | remaining activity at 1 µM (S6K1): 13% | remaining activity at 1 µM (SmMLCK): 66 ± 1% | remaining activity at 1 µM (WNK1): 105 ± 33% | remaining activity at 1 µM (YES1): 104 ± 8%

N=C(N)NCCC[C@@H](NC(=O)CNC(=O)[C@@H](CCCNC(=N)N)NC(=O)[C@@H](CCCNC(=N)N)NC(=O)CCCCCCCNCc1nc2c(sc3ccc(Br)cc32)c(=O)[nH]1)C(=O)N[C@H](CCCCN)C(N)=O [Compound 2, BBTP-Aoc-(D-Arg)2-Gly-D-Arg-D-Lys-NH2]
remaining activity at 1 µM (CHK1): 112 ± 6% | remaining activity at 1 µM (JNK1): 112 ± 2% | remaining activity at 1 µM (JNK2): 91 ± 7% | remaining activity at 1 µM (MAPKAP-K3): 110 ± 11% | remaining activity at 1 µM (MLK3): 107 ± 1% | remaining activity at 1 µM (PKC): 118 ± 11% | remaining activity at 1 µM (PLK1): 99 ± 1% | remaining activity at 1 µM (PRAK): 89% | remaining activity at 1 µM (S6K1): 85 ± 1% | remaining activity at 1 µM (SmMLCK): 98 ± 9% | remaining activity at 1 µM (WNK1): 93 ± 1% | remaining activity at 1 µM (YES1): 104 ± 12%

N=C(N)NCCC[C@@H](NC(=O)CNC(=O)[C@@H](CCCNC(=N)N)NC(=O)[C@@H](CCCNC(=N)N)NC(=O)Cn1cc(CNCc2nc3c(sc4ccc(Br)cc43)c(=O)[nH]2)nn1)C(=O)N[C@H](CCCCN)C(N)=O [Compound 3, BBTP-Amt-(D-Arg)2-Gly-D-Arg-D-Lys-NH2]
remaining activity at 1 µM (CHK1): 104 ± 2% | remaining activity at 1 µM (JNK1): 115 ± 13% | remaining activity at 1 µM (JNK2): 129 ± 21% | remaining activity at 1 µM (MAPKAP-K3): 85 ± 5% | remaining activity at 1 µM (MLK3): 94 ± 2% | remaining activity at 1 µM (PKC): 89 ± 2% | remaining activity at 1 µM (PLK1): 97 ± 7% | remaining activity at 1 µM (PRAK): 79 ± 7% | remaining activity at 1 µM (S6K1): 55 ± 6% | remaining activity at 1 µM (SmMLCK): 94% | remaining activity at 1 µM (WNK1): 104 ± 6% | remaining activity at 1 µM (YES1): 124 ± 1%
